For this assay, the target named is β-Klotho overexpressed in recombinant human 293T kidney cells. Nature of the assay: cell-based or functional assay.

For 14 substances, EC50 (nM), ELK-luciferase and Efficacy, ELK-luciferase results are on record in US20100285131A1.

With “hFc-(L15)-hFGF21(L98R, P171G, GGGGG182-6) (Fc fusion)”, the EC50 (nM), ELK-luciferase is 4310 nM and the Efficacy, ELK-luciferase came to 99.7%.

In the case of MKEDD-hFGF21-(L15)-hFc (Fc fusion), the EC50 (nM), ELK-luciferase was found to be 834 nM and the Efficacy, ELK-luciferase worked out at 83.1%.

Turning to “hFc-(L15)-hFGF21(L98R, P171G, S181P, P182) (Fc fusion)”, the EC50 (nM), ELK-luciferase amounted to 272 nM and the Efficacy, ELK-luciferase stood at 69.9%.

Consider “hFc-(L15)-hFGF21(1-178, L98R, P171G) (Fc fusion)”, for which the EC50 (nM), ELK-luciferase was 167 nM and the Efficacy, ELK-luciferase was found to be 63.9%.

Regarding “hFc-(L15)-hFGF21(L98R, P171G, S181P) (Fc fusion)”, the EC50 (nM), ELK-luciferase came out at 33.8 nM and the Efficacy, ELK-luciferase was 79.5%.

As for “hFc-(L15)-hFGF21(L98R, P171G, Y179P) (Fc fusion)”, the EC50 (nM), ELK-luciferase came to 428 nM and the Efficacy, ELK-luciferase is 44.4%.

“hFc-(L15)-hFGF21(L98R, P171G, Y179G) (Fc fusion)”: the EC50 (nM), ELK-luciferase was determined as 61 nM and the Efficacy, ELK-luciferase was 82.6%.

As to “hFc-(L15)-hFGF21(L98R, P171G, S181T) (Fc fusion)”, the EC50 (nM), ELK-luciferase worked out at 3.07 nM and the Efficacy, ELK-luciferase is 77.6%.

Turning to “hFc-(L15)-hFGF21(L98R, P171G, S181A) (Fc fusion)”, the EC50 (nM), ELK-luciferase is 2.66 nM and the Efficacy, ELK-luciferase is 73.5%.

In the case of “hFc-(L15)-hFGF21(L98R, P171G, S181G) (Fc fusion)”, the EC50 (nM), ELK-luciferase worked out at 3.43 nM and the Efficacy, ELK-luciferase came to 77.3%.

In the case of “hFc-(L15)-hFGF21(L98R, P171G, S181K) (Fc fusion)”, the EC50 (nM), ELK-luciferase came to 130 nM and the Efficacy, ELK-luciferase came out at 87.9%.

Consider “hFc-(L15)-hFGF21(L98R, P171G, S181L) (Fc fusion)”, for which the EC50 (nM), ELK-luciferase came out at 3.46 nM and the Efficacy, ELK-luciferase was 72.6%.

Regarding “hFc-(L15)-hFGF21(L98R, P171G, 1-179) (Fc fusion)”, the EC50 (nM), ELK-luciferase worked out at 7.8 nM and the Efficacy, ELK-luciferase stood at 77.4%.

As for “hFc-(L15)-hFGF21(L98R, P171G, A180P) (Fc fusion)”, the EC50 (nM), ELK-luciferase was 617 nM and the Efficacy, ELK-luciferase came to 77.1%.
